The values below are quoted from earlier work in publication PMC11591972.

This data set concerns the target Vm24 (Vaejovis mexicanus smithi) (UniProt P0DJ31).
Chain of UniProt P0DJ31 (P0DJ31 whole entry): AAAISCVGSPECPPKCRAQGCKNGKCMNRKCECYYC

As usually defined, the Kd is the concentration at which binding is half-saturated. With Kv1.3 (from UniProt P22001), the Kd was 3 pM.
